According to patent US20020035240A1 (Amgen, published 2002):

Target: T1, rat p55CDC (rat, UniProt Q62623 1-499, phosphorylated in CHO cells (sites not given))
T1 construct: 499 amino acids; In the assays it came from cell lysates: CHO cells transfected with the 1.8 kb rat cDNA (PMTp55s), or the endogenous protein of Rat1 cells
Test: co-immunoprecipitation with p55CDC antibody from 35S-labelled CHO cell lysates, SDS-PAGE
Experimental: Autoradiography was performed for 1 week.
In vitro translation was performed using a nuclease treated rabbit reticulocyte lysate (Promega, Madison, WI) and [³H]-leucine (Amersham TRK683). The mRNA template was produced by using the Stratagene in vitro transcription kit and the p55CDC cDNA subcloned into the Bluescript vector as substrate. Cell lysates were prepared as described (59) after rinsing the plates twice with PBS. Cells were lysed in modified radioimmunoprecipitation assay (RIPA) buffer with additional […] (150 mM NaCl, 1.0% NP-40, 1.0% sodium deoxycholate, 0.1% SDS, 2 mM EDTA, 6 mM Na₂HPO₄, 4 mM NaH₂PO4 50 mM NaF, 200 μM Na₃VO₄, 20 μg/ml aprotinin, 1 μg/ml leupeptin, 10 μg/ml soybean trypsin inhibitor and 50 μg/ml phenylmethyl sulfonyl fluoride). All protease inhibitors were purchased from Sigma. Protein concentrations were estimated using the Bicinchoninic acid reagent (Pierce). For 250 μg lysate in a final volume of 700 μl RIPA buffer, we used 7 μl of affinity purified p55CDC antibodies (140 μg protein/ml) or 12 μl of p55CDC competed antiserum (700 μg protein/ml) which gave an equivalent level of immunoglobulin for both preparations. Immunoprecipitation of p34^cdc2 complexes was done using 10 μl of the p34^cdc2 mouse monoclonal antibody 17 (Santa Cruz Biotechnology, Santa Cruz, Calif.). […]

T1 sequence (Q62623 whole entry D77E): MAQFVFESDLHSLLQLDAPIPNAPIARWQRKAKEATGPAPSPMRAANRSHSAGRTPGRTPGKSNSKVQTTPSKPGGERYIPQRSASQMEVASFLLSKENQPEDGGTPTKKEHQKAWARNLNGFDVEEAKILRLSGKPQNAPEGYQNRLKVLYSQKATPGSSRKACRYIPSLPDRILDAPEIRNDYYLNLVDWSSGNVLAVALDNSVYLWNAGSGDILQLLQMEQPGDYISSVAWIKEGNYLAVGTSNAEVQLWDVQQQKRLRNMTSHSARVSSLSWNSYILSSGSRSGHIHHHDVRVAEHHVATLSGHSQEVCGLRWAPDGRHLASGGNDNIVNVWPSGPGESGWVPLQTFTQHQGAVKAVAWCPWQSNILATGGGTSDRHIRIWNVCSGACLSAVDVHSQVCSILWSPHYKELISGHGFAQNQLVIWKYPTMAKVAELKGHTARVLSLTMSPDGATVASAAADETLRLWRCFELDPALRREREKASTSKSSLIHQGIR

binding result: no binding
B1: p34cdc2 (CHO cells) (enzyme)
chain: not shown
